Measurements published in patent US20170355775A1 (ELANCO TIERGESUNDHEIT, published 2017).
Changes are numbered by the printed parent chain. In names and notes the source's numbering stands. One block for each binder: values may come before it.

How the values were obtained:
[1] = biological target: T1, canine CD20 ECD2-mFc fusion protein (canine); assay: ELISA, antigen coated at 200 ng/well, antibody 5 ug/ml
T1 construct: also called cCD20 ECD2-mFc
T1 chain: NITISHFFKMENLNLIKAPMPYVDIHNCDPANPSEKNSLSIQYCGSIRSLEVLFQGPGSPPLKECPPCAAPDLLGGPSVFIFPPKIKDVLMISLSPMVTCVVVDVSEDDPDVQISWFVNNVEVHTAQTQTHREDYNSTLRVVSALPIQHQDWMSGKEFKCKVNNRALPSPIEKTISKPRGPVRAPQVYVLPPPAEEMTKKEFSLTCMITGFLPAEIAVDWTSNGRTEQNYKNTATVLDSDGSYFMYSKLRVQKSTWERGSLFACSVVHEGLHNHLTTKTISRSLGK
Method: (§1) This strategy- enabled identification of the specific sequences in canine CD20 that each mAb binds. Binding was tested using a standard ELISA protocol. Briefly, recombinant canine CD20 ECD2-mFc fusion protein and human/canine hybrid variants thereof were diluted in PBS and bound to a 96-well microtiter plate at 200 ng/well by overnight incubation at 4° C. The plate was rinsed three times with PBST buffer, blocked with a solution of 3% BSA in PBS for one hour at 37° C., then rinsed once with PBST. Mouse monoclonal antibodies 1E4, 1G1, and 1G10 were diluted to a concentration of 5 μg/ml in PBS and 50 μl of this dilution was applied to the plate for 1 hour at room temperature. The plate was then rinsed three times with PBST, and Jackson Immunoresearch goat anti-mouse-IgG light chain-specific HRP conjugate (#115-035-174) diluted to 1:5000 in PBS (50 μL) was added to each well, and the plate was incubated for 45 min at room temperature. The plate was washed three times with PBST, then 100 μl of SureBlueTMB substrate (KPL #52-00-03) was added to each well and the plate was incubated for about 10 min at room temperature. The plate was read at 650 nm in a spectrophotometer.

[2] = biological target: T2, Hum-Can CD20 ECD2 V3 (mFc fusion) (human/canine hybrid); assay: as above
T2 construct: Described as a hybrid version of the original immunogen CD20 ECD2-mFc
T2 chain: T1 chain with L39P, I41T, G45Y
Method: as §1

[3] = biological target: T3, canine CD20 on canine B cells / B cell lymphoma cells (canine, UniProt Q3C2E2 1-297); assay: FACS on canine B cell lymphoma cells expressing canine CD20
T3 construct: whole, on cells; Endogenous CD20 on canine cells
T3 sequence (looked up): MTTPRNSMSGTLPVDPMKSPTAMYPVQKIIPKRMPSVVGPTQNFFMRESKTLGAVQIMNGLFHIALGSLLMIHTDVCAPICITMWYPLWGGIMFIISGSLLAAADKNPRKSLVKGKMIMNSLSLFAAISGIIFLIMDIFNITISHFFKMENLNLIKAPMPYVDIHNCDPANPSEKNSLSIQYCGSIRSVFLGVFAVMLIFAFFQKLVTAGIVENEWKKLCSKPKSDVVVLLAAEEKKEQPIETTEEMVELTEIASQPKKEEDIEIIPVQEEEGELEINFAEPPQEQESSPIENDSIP
Method: The relative affinities of the mouse monoclonal antibodies 1E4, 1G1, and 1G10 for binding to canine CD20 was determined by fluorescent activated cell sorting (FACS) using canine B cell lymphoma cells, which express canine CD20.

[4] = biological target: T4, canine CD20 ECD2 peptide (canine); assay: ELISA on canine CD20 ECD2 peptide
T4 peptide: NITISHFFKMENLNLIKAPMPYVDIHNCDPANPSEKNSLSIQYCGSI

[5] = biological target: T4, canine CD20 ECD2 peptide; assay: ELISA on canine CD20 ECD2 peptide (FIG. 5)

B1: mouse monoclonal antibody 1G10 (antibody, V domains shown)
VH: EVQLQQSGPELVKPGASVKISCKASGYTFTDYYMNWVKQSHGKSLEWIGDINPNNGDTSYNQKFKGKAPLTVDKSSSTAYMEVRSLTSEDSAVYFCARGGVLRYPYYYVMDYWGQGTSVTVSS
VL: DIVMTQAAPSVPVTPGESVSISCRSNKSLLHRNGNTYLYWFLQRPGQSPQLLIYRMSNLASGVPDRFSGSGSGTAFTLRISRVEAEDVGVYYCMQHLEFPFTFGGGTKLEIK
notes: Mouse monoclonal antibody from a hybridoma; also called hybridoma antibody 1G10
- binding result [1]: binds
- binding result [2]: binds
- Kd [3]: 0.29 nM

B2: chimeric anti-canine CD20 antibody 1E4-cIgGB (antibody, V domains shown)
VH: EVQLVESGGGLVKPGGSLKLSCAASGFTFSDYGMLWVRQAPEKGLEWIAYISSGSSTIYYADRVKGRFTISRDNAKNTLFLQMTSLRSEDTAMYYCSTGTFAYWGQGTPVTVSS
VL: DVVMTQNPLSLPVSLGDQASISCRSSQSLIYNNGNTYLHWYRQKPGQSPKLLIYKVSNRFSGVPDRFSGSGSGTDFTLKISRVEAEDLGVYFCSQSTHVPFTFGSGTKLEIKR
notes: also called unmodified (WT) 1E4-cIgGB; 1E4-cIGB
- binding result [4]: binds

B3: mouse monoclonal antibody 1E4 (antibody, V domains shown)
VH: B2 VH
VL: DVVMTQNPLSLPVSLGDQASISCRSSQSLIYNNGNTYLHWYRQKPGQSPKLLIYKVSNRFSGVPDRFSGSGSGTDFTLKISRVEAEDLGVYFCSQSTHVPFTFGSGTKLEIK
notes: Mouse monoclonal antibody from a hybridoma; also called 1E4-mAb; hybridoma antibody 1E4
- binding result [1]: binds
- binding result [2]: binds
- Kd [3]: 0.97 nM

B4: 1E4-cIgGB with N33 to L substitution in VL (antibody, V domains shown)
VH: B2 VH
VL: B2 VL with N33L
notes: Whole antibody (heavy plus light chains) made 'using the above procedures'
- binding result [4]: binds

B5: 1E4-cIgGB with N33 to T substitution in VL (antibody, V domains shown)
VH: B2 VH
VL: B2 VL with N33T
notes: as for B4
- binding result [4]: binds

B6: 1E4-cIgGB with N33 to V substitution in VL (antibody, V domains shown)
VH: B2 VH
VL: B2 VL with N33V
notes: as for B4
- binding result [4]: binds

B7: 1E4-cIgGB with G34 to Q substitution in VL (antibody, V domains shown)
VH: B2 VH
VL: B2 VL with G34Q
notes: also called G34Q
- binding result [5]: binds

B8: 1E4-cIgGB with G34 to V substitution in VL (antibody, V domains shown)
VH: B2 VH
VL: B2 VL with G34V
notes: as for B4
- binding result [4]: binds

B9: 1E4-cIgGB with N33 to Q substitution in VL (antibody, V domains shown)
VH: B2 VH
VL: B2 VL with N33Q
notes: as for B4
- binding result [4]: binds

B10: 1E4-cIgGB with N33 to F substitution in VL (antibody, V domains shown)
VH: B2 VH
VL: B2 VL with N33F
notes: as for B4
- binding result [4]: binds

B11: 1E4-cIgGB with G34 to F substitution in VL (antibody, V domains shown)
VH: B2 VH
VL: B2 VL with G34F
notes: as for B4
- binding result [4]: binds

B12: 1E4-cIgGB with N33 to I substitution in VL (antibody, V domains shown)
VH: B2 VH
VL: B2 VL with N33I
notes: as for B4
- binding result [4]: binds

B13: 1E4-cIgGB with N33 to Y substitution in VL (antibody, V domains shown)
VH: B2 VH
VL: B2 VL with N33Y
notes: as for B4
- binding result [4]: binds

B14: 1E4-cIgGB with N33 to H substitution in VL (antibody, V domains shown)
VH: B2 VH
VL: B2 VL with N33H
notes: as for B4
- binding result [4]: binds

B15: 1E4-cIgGB with G34 to K substitution in VL (antibody, V domains shown)
VH: B2 VH
VL: B2 VL with G34K
notes: also called G34K
- binding result [5]: binds

Results, then the binder that gave them:

- binding result [4]: binds
B16: 1E4-cIgGB with G34 to I substitution in VL (antibody, V domains shown)
VH: B2 VH
VL: B2 VL with G34I
notes: as for B4

- binding result [4]: binds
B17: 1E4-cIgGB with N33 to E substitution in VL (antibody, V domains shown)
VH: B2 VH
VL: B2 VL with N33E
notes: as for B4

- binding result [4]: binds
B18: 1E4-cIgGB with G34 to Y substitution in VL (antibody, V domains shown)
VH: B2 VH
VL: B2 VL with G34Y
notes: as for B4

- binding result [4]: binds
B19: 1E4-cIgGB with G34 to E substitution in VL (antibody, V domains shown)
VH: B2 VH
VL: B2 VL with G34E
notes: as for B4

- binding result [5]: binds
B20: 1E4-cIgGB with G34 to A substitution in VL (antibody, V domains shown)
VH: B2 VH
VL: B2 VL with G34A
notes: also called G34A

- binding result [4]: binds
B21: 1E4-cIgGB with G34 to R substitution in VL (antibody, V domains shown)
VH: B2 VH
VL: B2 VL with G34R
notes: as for B4

- binding result [4]: binds
B22: 1E4-cIgGB with G34 to H substitution in VL (antibody, V domains shown)
VH: B2 VH
VL: B2 VL with G34H
notes: as for B4

- binding result [4]: binds
B23: 1E4-cIgGB with N33 to A substitution in VL (antibody, V domains shown)
VH: B2 VH
VL: B2 VL with N33A
notes: as for B4

- binding result [4]: binds
B24: 1E4-cIgGB with N33 to P substitution in VL (antibody, V domains shown)
VH: B2 VH
VL: B2 VL with N33P
notes: as for B4

- binding result [4]: binds
B25: 1E4-cIgGB with G34 to P substitution in VL (antibody, V domains shown)
VH: B2 VH
VL: B2 VL with G34P
notes: as for B4

- binding result [5]: binds
B26: 1E4-cIgGB with N33 to K substitution in VL (antibody, V domains shown)
VH: B2 VH
VL: B2 VL with N33K
notes: also called N33K

- binding result [4]: binds
B27: 1E4-cIgGB with N33 to R substitution in VL (antibody, V domains shown)
VH: B2 VH
VL: B2 VL with N33R
notes: as for B4

- binding result [4]: binds
B28: 1E4-cIgGB with G34 to L substitution in VL (antibody, V domains shown)
VH: B2 VH
VL: B2 VL with G34L
notes: as for B4
